Measurements taken from PMC4271737.

Assays:
[1] = biological target: human angiotensin II type 1 receptor with a C-terminal GFP-H10 tag (AT1R-GFP-H10) (human) (UniProt P30556); experiment: radioligand binding; non-solubilised membranes (briefly sonicated cells); 0.5 nM [125I]Sar1 with 100 nM unlabelled Sar1; bound and free ligand separated by filtration through 96-well glass fibre filter plates without polyethyleneimine; background from parental or uninfected cells
[2] = biological target: human angiotensin II type 1 receptor with a C-terminal decahistidine tag (AT1R-H10) (human) (UniProt P30556); experiment: as above

specific binding in membranes (dpm, set to 100%) [1]: 12000 dpm
specific binding in membranes (dpm, set to 100%) [2]: 1400 dpm
Substance: [^125I]sar^1-Ile^8-angiotensin II (peptide)
